The supplement of paper PMC7877785
± gives the uncertainty stated by the source.

Test: self-splicing fitness, log relative to wild type (ln ratio); higher = more splicing; Tetrahymena group I intron in knt gene, E. coli kanamycin selection, DiMSum; sequences stand for … in CUCUCU…GGAGGGAAAAGUUAUCAGGCAUGCACCUGGUAGCUAGUCUUUAAACCAAUAGAUUGCAUCGGUUUAAAAGGCAAGACCGUCAAAUUGCGGGAAAGGGGUCAACAGCCGUUCAGUACCAAGUCUCAGGGGAAACUUUGAGAUGGCCUUGCAAAGGGUAUGGUAAUAAGCUGACGGACAUGGUCCUAACCACGCAGCCAAGUCCUAAGUCAACAGAUCUUCUGUUGAUAUGGAUGCAGUUCACAGACUAAAUGUCGGUCGGGGAAGAUGUAUUCUUCUCAUAAGAUAUAGUCGGACCUCUCCUUAAUGGGAGCUAGCGGAUGAAGUGAUGCAACACUGGAGCCGCUGGGAACUAAUUUGUAUGCGAAAGUAUAUUGAUUAGUUUUGGAGUACUCGUGGUCG
How it was run: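 Colonies from six replicate transformations of E. coli BL21(DE3) were pooled and amplicon-sequenced on an Illumina HiSeq 2500. The library placed an intron with all eight P1ex-region nucleotides randomised inside the knt kanamycin-resistance gene on pET-22b(+), and cells grew overnight at 37°C or 30°C on LB agar with or without 25 μg/mL kanamycin (plus 100 μg/mL carbenicillin, 50 μM IPTG, 0.2% rhamnose). Fitness is the DiMSum error-weighted combination of wild-type-normalised replicate fold changes, kanamycin versus none.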

With GUACAGCAAUAUUACGUGUA the “self-splicing fitness (ln)” value (30 °C) was -3.18 ± 0.16 and the “self-splicing fitness (ln)” value (37 °C) was -2.32 ± 0.14.

For UGUAAGCAAUAUUACGUUCG, the “self-splicing fitness (ln)” value (30 °C) was 0.188 ± 0.095 and the “self-splicing fitness (ln)” value (37 °C) was 0.33 ± 0.12.

In the case of CGUGAGCAAUAUUACGGACG, the “self-splicing fitness (ln)” value (30 °C) is reported as -2.08 ± 0.22 and the “self-splicing fitness (ln)” value (37 °C) is reported as -1.31 ± 0.38.

With AAGAAGCAAUAUUACGAAGC the “self-splicing fitness (ln)” value (30 °C) was -3.02 ± 0.18 and the “self-splicing fitness (ln)” value (37 °C) was -2.43 ± 0.28.

For UUAGAGCAAUAUUACGAUGG, the “self-splicing fitness (ln)” value (30 °C) was -1.02 ± 0.15 and the “self-splicing fitness (ln)” value (37 °C) was 0.108 ± 0.19.

In the case of AAGAAGCAAUAUUACGCGAU, the “self-splicing fitness (ln)” value (30 °C) is reported as -3.59 ± 0.41 and the “self-splicing fitness (ln)” value (37 °C) is reported as -2 ± 0.42.

With AACUAGCAAUAUUACGGGUA the “self-splicing fitness (ln)” value (30 °C) was -0.761 ± 0.072 and the “self-splicing fitness (ln)” value (37 °C) was -0.0817 ± 0.07.

For CUGCAGCAAUAUUACGUAGU, the “self-splicing fitness (ln)” value (30 °C) was -4.54 ± 0.45 and the “self-splicing fitness (ln)” value (37 °C) was -2.5 ± 0.28.

For AGCUAGCAAUAUUACGGGGG, the “self-splicing fitness (ln)” value (30 °C) was -3.05 ± 0.31 and the “self-splicing fitness (ln)” value (37 °C) was -1.64 ± 0.27.

In the case of AAACAGCAAUAUUACGGUUG, the “self-splicing fitness (ln)” value (30 °C) is reported as -1.99 ± 0.061 and the “self-splicing fitness (ln)” value (37 °C) is reported as -0.629 ± 0.075.

For GUAAAGCAAUAUUACGUUGA, the “self-splicing fitness (ln)” value (30 °C) was -1.97 ± 0.071 and the “self-splicing fitness (ln)” value (37 °C) was -0.945 ± 0.098.

In the case of CCACAGCAAUAUUACGCAGU, the “self-splicing fitness (ln)” value (30 °C) is reported as -3.58 ± 0.15 and the “self-splicing fitness (ln)” value (37 °C) is reported as -2.92 ± 0.19.

For AUUAAGCAAUAUUACGAUCC, the “self-splicing fitness (ln)” value (30 °C) was -0.418 ± 0.11 and the “self-splicing fitness (ln)” value (37 °C) was -0.106 ± 0.19.

In the case of CGAUAGCAAUAUUACGUGCG, the “self-splicing fitness (ln)” value (30 °C) is reported as -2.23 ± 0.089 and the “self-splicing fitness (ln)” value (37 °C) is reported as -1.04 ± 0.1.

With AACUAGCAAUAUUACGGAGG the “self-splicing fitness (ln)” value (30 °C) was -3.08 ± 0.2 and the “self-splicing fitness (ln)” value (37 °C) was -1.99 ± 0.22.

With ACACAGCAAUAUUACGAGAC the “self-splicing fitness (ln)” value (30 °C) was -3.25 ± 0.14 and the “self-splicing fitness (ln)” value (37 °C) was -2.54 ± 0.17.

For GCUAAGCAAUAUUACGCCUA, the “self-splicing fitness (ln)” value (30 °C) was -1.55 ± 0.3 and the “self-splicing fitness (ln)” value (37 °C) was -0.198 ± 0.2.

In the case of UUCCAGCAAUAUUACGACGG, the “self-splicing fitness (ln)” value (30 °C) is reported as -2.74 ± 0.32 and the “self-splicing fitness (ln)” value (37 °C) is reported as -1.98 ± 0.29.

For CGUUAGCAAUAUUACGUGAG, the “self-splicing fitness (ln)” value (30 °C) was -1.59 ± 0.087 and the “self-splicing fitness (ln)” value (37 °C) was -0.0698 ± 0.13.

For GGCUAGCAAUAUUACGCCGC, the “self-splicing fitness (ln)” value (30 °C) was -3.44 ± 0.41.

In the case of GUUCAGCAAUAUUACGUCCU, the “self-splicing fitness (ln)” value (30 °C) is reported as -0.606 ± 0.14 and the “self-splicing fitness (ln)” value (37 °C) is reported as 0.279 ± 0.17.

In the case of AGGUAGCAAUAUUACGUGGC, the “self-splicing fitness (ln)” value (30 °C) is reported as -3.619 ± 0.028 and the “self-splicing fitness (ln)” value (37 °C) is reported as -2.74 ± 0.042.

For AUUCAGCAAUAUUACGUGGG, the “self-splicing fitness (ln)” value (30 °C) was -2.63 ± 0.11 and the “self-splicing fitness (ln)” value (37 °C) was -1.87 ± 0.1.

For UUAAAGCAAUAUUACGCGAU, the “self-splicing fitness (ln)” value (30 °C) was -3.01 ± 0.24 and the “self-splicing fitness (ln)” value (37 °C) was -0.953 ± 0.17.

With GACGAGCAAUAUUACGUUUC the “self-splicing fitness (ln)” value (30 °C) was -2.64 ± 0.24 and the “self-splicing fitness (ln)” value (37 °C) was -3.33 ± 0.33.

In the case of AUCGAGCAAUAUUACGGGGG, the “self-splicing fitness (ln)” value (30 °C) is reported as -3.4 ± 0.25 and the “self-splicing fitness (ln)” value (37 °C) is reported as -2.67 ± 0.26.

For GUUGAGCAAUAUUACGGCAA, the “self-splicing fitness (ln)” value (30 °C) was -1.78 ± 0.42 and the “self-splicing fitness (ln)” value (37 °C) was -0.283 ± 0.48.

With UUCUAGCAAUAUUACGGUAG the “self-splicing fitness (ln)” value (30 °C) was -2.29 ± 0.23 and the “self-splicing fitness (ln)” value (37 °C) was -3.15 ± 0.37.

With UUAAAGCAAUAUUACGGGUG the “self-splicing fitness (ln)” value (30 °C) was 0.148 ± 0.069 and the “self-splicing fitness (ln)” value (37 °C) was 0.271 ± 0.098.

For GUUAAGCAAUAUUACGUGGG, the “self-splicing fitness (ln)” value (30 °C) was -2.87 ± 0.13 and the “self-splicing fitness (ln)” value (37 °C) was -2.65 ± 0.17.

For AUGAAGCAAUAUUACGCGGC, the “self-splicing fitness (ln)” value (30 °C) was -2.46 ± 0.31 and the “self-splicing fitness (ln)” value (37 °C) was -2.26 ± 0.29.

For CGACAGCAAUAUUACGGUAU, the “self-splicing fitness (ln)” value (30 °C) was -3.62 ± 0.2 and the “self-splicing fitness (ln)” value (37 °C) was -2.45 ± 0.23.

For AUAGAGCAAUAUUACGCUCG, the “self-splicing fitness (ln)” value (30 °C) was -0.665 ± 0.41 and the “self-splicing fitness (ln)” value (37 °C) was 0.704 ± 0.38.

For CCGUAGCAAUAUUACGGGAG, the “self-splicing fitness (ln)” value (30 °C) was -3.35 ± 0.19 and the “self-splicing fitness (ln)” value (37 °C) was -2.97 ± 0.18.

In the case of AUGCAGCAAUAUUACGGAGU, the “self-splicing fitness (ln)” value (30 °C) is reported as -1.78 ± 0.093 and the “self-splicing fitness (ln)” value (37 °C) is reported as -1.44 ± 0.11.

In the case of GGGUAGCAAUAUUACGUCCG, the “self-splicing fitness (ln)” value (30 °C) is reported as -0.212 ± 0.15 and the “self-splicing fitness (ln)” value (37 °C) is reported as -0.15 ± 0.19.

In the case of CAGUAGCAAUAUUACGGUCA, the “self-splicing fitness (ln)” value (37 °C) is reported as -1.71 ± 0.28.

For AGUUAGCAAUAUUACGGAGG, the “self-splicing fitness (ln)” value (30 °C) was -2.91 ± 0.3 and the “self-splicing fitness (ln)” value (37 °C) was -2.13 ± 0.41.
